Test system: GFAP+ astrocytes
Test: Safety analysis, GFAP staining for astrocytic activation
Format: in vivo, mouse
Details: RAID treatment, FUS+AADC-IKVAV
Excerpt: Additionally, the brain sections stained for GFAP were imaged using a 4× objective in DAPI (nuclei) and far-red (GFAP) channels. Three square areas were then selected in both the left and right striatum respectively, each with 3×3 binning, for imaging with a 40× objective to quantify GFAP+ cells.
In FIG. 7, we applied the following brightness (white) thresholds for the corresponding channels: 6045 (DAPI, nuclei, not shown), 15,000 (Cy3, D1R), 16,000 (green, D2R), and 6045 (far-red, c-Fos), with a gamma value of 1. In FIG. 11, we applied a Brightness (White) threshold of 6045 for both DAPI (nuclei, not shown) and far-red (c-Fos) channels, with a Gamma value of 1. The images were then overlayed, and the c-Fos+ cells were manually counted. Similarly, the GFAP+ cells were manually counted, as shown in FIG. 15c and FIG. 17, by applying a Brightness (White) threshold of 5686 and a Gamma value of 1 for both the DAPI (nuclei) and far-red (GFAP, purple) channels.
Adjacent sections were stained separately with an anti-GFAP antibody to examine astrocytic activation. […]

B1: AADC-IKVAV: aromatic-L-amino-acid decarboxylase (AADC) protein fused with short peptide IKVAV (SEQ ID NO: 23); CDS SEQ ID NO: 21 (protein)
chain: MRGSHHHHHHGMASMTGGQQMGRDLYDDDDKDPMNASEFRRRGKEMVDYMANYMEGIEGRQVYPDVEPGYLRPLIPAAAPQEPDTFEDIINDVEKIIMPGVTHWHSPYFFAYFPTASSYPAMLADMLCGAIGCIGFSWAASPACTELETVMMDWLGKMLELPKAFLNEKAGEGGGVIQGSASEATLVALLAARTKVIHRLQAASPELTQAAIMEKLVAYSSDQAHSSVERAGLIGGVKLKAIPSDGNFAMRASALQEALERDKAAGLIPFFMVATLGTTTCCSFDNLLEVGPICNKEDIWLHVDAAYAGSAFICPEFRHLLNGVEFADSFNFNPHKWLLVNFDCSAMWVKKRTDLTGAFRLDPTYLKHSHQDSGLITDYRHWQIPLGRRFRSLKMWFVFRMYGVKGLQAYIRKHVQLSHEFESLVRQDPRFEICVEVILGLVCFRLKGSNKVNEALLQRINSAKKIHLVPCHLRDKFVLRFAICSRTVESAHVQRAWEHIKELAADVLRAEREGGSGSSGGSGGSGGSGIKVAV
modifications: misc_feature 1..1602 Synthetic: AADC-IKVAV
numbers of GFAP+ astrocytes in targeted area vs contralateral site: did not affect

Source: US20250195629A1, “SITE-SPECIFIC BRAIN THERAPEUTICS” (William Marsh Rice University, priority 2023, published 2025)
